Tests used:
[1] = target: T1, his-tagged human CDH6 extracellular region protein (hCDH6 ECD-his) (human, UniProt P55285 19-615); assay: ELISA, coated antigen; ELISA, coated hCDH6-his; later run beside the hCDH6-14 humanized antibodies (Table 19)
T1 construct: also called Human CDH6-his; hCDH6-his; not shown: his tag
T1 sequence: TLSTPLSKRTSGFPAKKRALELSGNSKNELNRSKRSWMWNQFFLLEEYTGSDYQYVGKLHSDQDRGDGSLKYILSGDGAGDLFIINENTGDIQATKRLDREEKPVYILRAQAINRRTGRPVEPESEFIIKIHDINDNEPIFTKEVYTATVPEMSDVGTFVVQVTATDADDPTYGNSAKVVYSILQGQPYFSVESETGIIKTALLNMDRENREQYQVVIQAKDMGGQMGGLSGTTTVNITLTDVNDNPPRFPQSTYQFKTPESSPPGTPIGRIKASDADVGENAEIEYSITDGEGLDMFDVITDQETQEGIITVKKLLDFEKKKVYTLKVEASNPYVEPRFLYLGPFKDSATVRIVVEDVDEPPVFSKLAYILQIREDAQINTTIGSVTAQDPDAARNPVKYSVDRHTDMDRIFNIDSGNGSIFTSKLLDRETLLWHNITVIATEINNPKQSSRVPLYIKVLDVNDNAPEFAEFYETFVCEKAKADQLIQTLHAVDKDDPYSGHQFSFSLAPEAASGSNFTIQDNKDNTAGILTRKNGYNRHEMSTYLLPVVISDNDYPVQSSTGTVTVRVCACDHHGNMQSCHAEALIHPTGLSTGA

[2] = target: T2, human CDH6 on tumor cells (OVCAR3 cells, PA-1 cells) (human, UniProt P55285 54-790); assay: FACS, OVCAR3 cells
T2 sequence: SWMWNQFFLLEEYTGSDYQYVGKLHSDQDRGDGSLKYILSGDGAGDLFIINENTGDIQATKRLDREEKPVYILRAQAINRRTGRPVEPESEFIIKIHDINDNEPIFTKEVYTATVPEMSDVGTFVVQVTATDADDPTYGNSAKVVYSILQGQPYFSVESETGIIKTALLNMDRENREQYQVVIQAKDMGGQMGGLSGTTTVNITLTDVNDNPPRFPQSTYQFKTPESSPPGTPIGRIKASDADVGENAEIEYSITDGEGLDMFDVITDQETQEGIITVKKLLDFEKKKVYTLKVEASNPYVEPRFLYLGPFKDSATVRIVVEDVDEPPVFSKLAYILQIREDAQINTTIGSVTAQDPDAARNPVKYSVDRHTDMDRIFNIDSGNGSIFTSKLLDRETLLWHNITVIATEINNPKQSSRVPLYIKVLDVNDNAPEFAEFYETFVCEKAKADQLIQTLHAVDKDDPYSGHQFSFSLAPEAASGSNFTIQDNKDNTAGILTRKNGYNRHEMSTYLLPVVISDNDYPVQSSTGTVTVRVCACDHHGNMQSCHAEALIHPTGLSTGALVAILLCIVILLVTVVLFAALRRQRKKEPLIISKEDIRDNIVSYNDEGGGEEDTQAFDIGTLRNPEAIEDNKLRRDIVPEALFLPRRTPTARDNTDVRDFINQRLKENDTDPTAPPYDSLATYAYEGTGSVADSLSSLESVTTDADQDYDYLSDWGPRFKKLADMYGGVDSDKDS
Experimental: OVCAR3 cells with high expression of CDH6 and PA-1 cells with moderate expression of CDH6 were used to detect the binding activity of the antibodies to the cells. […] The cells were washed once with PBS, counted, resuspended to 2×10⁶ cells/mL in an FACS buffer (PBS+2% FBS), and then added to a 96-well plate at 50 μL/well. The chimeric antibodies were diluted with FACS buffer (PBS+2% FBS) and added to the 96-well plate at 50 μL/well, and the plate was incubated at 4° C. for 1 h. […] The dilution was added to the 96-well plate at 50 μL/well, and the plate was incubated at 4° C. for 1 h. After the plates were centrifuged and washed 2 times with PBS, the cells were resuspended in an FACS buffer. The mean fluorescence intensity (MFI) was measured using FACS Canton II (BD). Analysis was performed by the GraphPad Prism software, data were fitted, and EC50 values were calculated. The chimeric antibodies tested had strong binding to both OVCAR3 cells and PA-1 cells.
According to the above sequences, heavy chain (HC) and light chain (LC) plasmids were constructed (the nucleic acid sequences encoding the VH and VL of the antibodies were recombined into an expression vector carrying a signal peptide (SEQ ID NO: 132, […]) and a heavy chain constant region/light chain constant region sequence to obtain recombinant plasmids expressing VH-CH1-Fc/VL-CL). According to the expression and purification methods in Example 2, the hCDH6-1 humanized antibodies were obtained, and the binding activity of the humanized antibodies was detected by ELISA and FACS (see 2.2 and 2.3 for the method).

[3] = target: T3, human CDH6 with EC2 removed, on HEK293T cells (HEK293T-hCDH6-EC2 deletion) (human, UniProt P55285 54-790); assay: FACS, HEK293T-hCDH6-EC2 deletion cells
T3 construct: Signal peptide not removed here
T3 sequence: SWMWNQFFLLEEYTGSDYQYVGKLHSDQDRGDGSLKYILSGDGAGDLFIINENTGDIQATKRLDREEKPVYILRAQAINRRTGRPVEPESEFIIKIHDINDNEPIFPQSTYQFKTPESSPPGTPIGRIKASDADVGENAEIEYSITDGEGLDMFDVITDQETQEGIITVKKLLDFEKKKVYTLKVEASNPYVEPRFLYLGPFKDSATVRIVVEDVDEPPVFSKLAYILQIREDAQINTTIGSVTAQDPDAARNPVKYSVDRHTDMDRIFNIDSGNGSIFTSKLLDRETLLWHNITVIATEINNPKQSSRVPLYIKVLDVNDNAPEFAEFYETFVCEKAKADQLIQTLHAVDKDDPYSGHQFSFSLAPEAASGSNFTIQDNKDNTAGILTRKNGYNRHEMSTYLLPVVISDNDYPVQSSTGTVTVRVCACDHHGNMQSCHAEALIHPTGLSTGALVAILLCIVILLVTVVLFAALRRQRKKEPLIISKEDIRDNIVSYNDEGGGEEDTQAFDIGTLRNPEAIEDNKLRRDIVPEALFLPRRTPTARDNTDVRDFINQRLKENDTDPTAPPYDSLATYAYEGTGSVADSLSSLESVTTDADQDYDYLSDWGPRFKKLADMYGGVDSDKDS

B1: CHI-CDH6-14 (antibody, human IgG1, kappa, V domains shown)
VH: QIQLQQSGPELVKPGTSVKISCKASGYTFTDNYINWVRQRPGQGLEWIGWIYPGTGNSYYNEKFKGKATLTVDTSSSTAYMQFSSLTSEDSAVYLCASSYGDSFDYWGQGTTLTVSS
VL: DIQMTQTTSSLSASLGNRVTISCRASQDIRNYLNWYQQKPDGTFKLLISYTSRLHSGVPSRFSGSGSGTDYSLTVSNLEPEDIATYYCQQYSQLPWTFGGGSRLEIKR
notes: also called CHI-hCDH6-14; CH1-CDH6-14
[1]
  EC50: 0.034 nM

B2: hCDH6-1-H2L3 (antibody, V domains shown)
VH: EVQLVQSGAEVKKPGSSVKVSCKASGYTFTNYWMHWVRQAPGQGLEWMGDIDPSHSETHYTQKFKDRVTITVDKSTSTAYMELSSLRSEDTAVYYCARGDLGRFDYWGQGTTVTVSS
VL: DIQMTQSPSSLSASVGDRVTITCRASESVSIHGTHLMHWYQQKPGKPPKLLIYAASNLESGVPSRFSGSGSETDFTFTISSLQPEDIATYYCQQSFEDPWTFGGGTKVEIK
notes: Humanized
[2]
  EC50: 0.17 nM
  Max MFI: 14800 MFI

B3: CHI-CDH6-4 (antibody, human IgG1, kappa, V domains shown)
VH: QVQLQQSGPELVKPGASVKISCKASGYAFSNFWMNWVKQRPGKGLEWIGWIYPGDGDTNYNGKFKDKATLTADKSSSTAYIQLSSLTSEDSAVYFCARLYDAWGFFDYWGQGTTLTVSS
VL: QIVLTQSPAIMSASPGQKVTITCSASSSVNYMHWYQQKLGSSPKLWIYDKSKLAPGVPARFSGSGSGTSYSLTISSMEAEDAASYFCHQWSSYPPMTFGGGTKLEIKR
notes: also called CH1-CDH6-4; chimeric antibody of murine CDH6-4
[3]
  binding result: no binding

B4: CHI-CDH6-1 (antibody, human IgG1, kappa, V domains shown)
VH: QVQLQQPGAELVRPGSSVKLSCKASGYTFTNYWMHWVKQRPIEGLEWIGDIDPSHSETHYTQKFKDKATLTVDKSSSTAYMQLSSLTSEDSAVYYCARGDLGRFDYWGQGTTLTVSS
VL: DIVLTQSPASLAVSLGQRATISCRASESVSIHGTHLMHWYQQKSGQPPKLLIYAASNLESGVPARFSGSGSETDFTFNIHPVEEEDAATYFCQQSFEDPWTFGGGTKLEIKR
notes: also called CHI-hCDH6-1; CH1-CDH6-1
[2]
  EC50: 0.194 nM
  Max MFI: 14900 MFI

— US20260234242A1 (HAINAN SIMCERE ZAIMING PHARMACEUTICAL, published 2026)
